Experiments:
[1] = target: EGFR-GFP (epidermal growth factor receptor fused to GFP) on F1-4 cells (UniProt P00533); assay: flow cytometry on cells; F1-4 cells treated with 2 uM latrunculin-B at 37°C for 10 min, then concentration series of TAMRA-EGF, 1 h on ice; Hill equation fit
[2] = target: EGFR-GFP (epidermal growth factor receptor fused to GFP) on F1-4 cells (UniProt P00533); assay: flow cytometry on cells; F1-4 cells incubated with a concentration series of EGF for 24 h on ice; Hill equation fit; the paper finds internalized EGF and questions equilibrium at this time
[3] = target: EGFR-GFP (epidermal growth factor receptor fused to GFP) on F1-4 cells (UniProt P00533); assay: flow cytometry on cells; cells treated with 5 uM lapatinib at 37°C for 1 h and labelled with TAMRA-EGF in the continued presence of the inhibitor, 1 h on ice; Hill equation fit, apparent Kd; all cells
[4] = target: EGFR-GFP (epidermal growth factor receptor fused to GFP) on F1-4 cells (UniProt P00533); assay: flow cytometry on cells; cells treated with 5 uM lapatinib at 37°C for 1 h and labelled with TAMRA-EGF in the continued presence of the inhibitor, 1 h on ice; Hill equation fit, apparent Kd; low expresser gate
[5] = target: EGFR-GFP (epidermal growth factor receptor fused to GFP) on F1-4 cells (UniProt P00533); assay: flow cytometry on cells; cells treated with 5 uM erlotinib at 37°C for 1 h and labelled with TAMRA-EGF in the continued presence of the inhibitor, 1 h on ice; Hill equation fit, apparent Kd; high expresser gate
[6] = target: EGFR-GFP (epidermal growth factor receptor fused to GFP) on F1-4 cells (UniProt P00533); assay: flow cytometry on cells; cells treated with 5 uM lapatinib at 37°C for 1 h and labelled with TAMRA-EGF in the continued presence of the inhibitor, 1 h on ice; Hill equation fit, apparent Kd; high expresser gate
[7] = target: EGFR-GFP (epidermal growth factor receptor fused to GFP) on F1-4 cells (UniProt P00533); assay: flow cytometry on cells; two-fold dilution series of TAMRA-EGF in PBS + 1% BSA on suspended F1-4 cells, 1 h on ice, measured without washing; Hill equation fit, apparent Kd; untreated (control) cells, all cells
[8] = target: EGFR-GFP (epidermal growth factor receptor fused to GFP) on F1-4 cells (UniProt P00533); assay: flow cytometry on cells; cells treated with 5 uM erlotinib at 37°C for 1 h and labelled with TAMRA-EGF in the continued presence of the inhibitor, 1 h on ice; Hill equation fit, apparent Kd; medium expresser gate
[9] = target: EGFR-GFP (epidermal growth factor receptor fused to GFP) on F1-4 cells (UniProt P00533); assay: flow cytometry on cells; cells treated with 5 uM lapatinib at 37°C for 1 h and labelled with TAMRA-EGF in the continued presence of the inhibitor, 1 h on ice; Hill equation fit, apparent Kd; medium expresser gate
[10] = target: EGFR-GFP (epidermal growth factor receptor fused to GFP) on F1-4 cells (UniProt P00533); assay: flow cytometry on cells; global fit of the paper's model (conformations of ECD and kinase domain, dimerization, ligand binding to monomers and dimers) to all 12 TAMRA-EGF binding data sets (untreated, erlotinib, lapatinib; three gates and all cells), 1 h on ice; K2-K9 shared; ligand constants in nM, receptor dimerization constants in number of receptors/cell

## Tetramethylrhodamine-labeled EGF (ligand)
[1]
  Kd: 8.2 nM
[2]
  Kd: 5.2 nM
[3]
  Kd: 4.9 nM
[4]
  Kd: 6.3 nM
[5]
  Kd: 1.7 nM
[6]
  Kd: 4.9 nM
[7]
  Kd: 3.4 nM
[8]
  Kd: 1.8 nM
[9]
  Kd: 5.1 nM
[10]
  K3, Kd of EGF binding to a monomer with extended ECD: 1.3 nM
  K5, Kd of binding of the first EGF to a dimer with inactive, symmetric kinase dimer: 95 nM
  K6, Kd of binding of the second EGF to a dimer with inactive, symmetric kinase dimer: 0.45 nM
  K9, Kd of binding of the second EGF to a dimer with active, asymmetric kinase dimer: 2.96 nM

— publication PMC7431817
